How the values were obtained:
[1] = molecular target: Purified MDM2 (1-125) protein (human MDM2 1-125 sequence comprising a modified TEV cleavage site, pNIC-GST fusion) (human) (UniProt Q00987); test: competitive fluorescence anisotropy (FP) against FAM-labeled 12/1 peptide on MDM2 (1-125); apparent Kd
[2] = molecular target: MDM2 (in HCT116 cells) (human) (UniProt Q00987); test: cell-based or functional assay

Sequence of Purified MDM2 (1-125) protein (human MDM2 1-125 sequence comprising a modified TEV cleavage site, pNIC-GST fusion) (human) (Q00987 1-125 limits assumed): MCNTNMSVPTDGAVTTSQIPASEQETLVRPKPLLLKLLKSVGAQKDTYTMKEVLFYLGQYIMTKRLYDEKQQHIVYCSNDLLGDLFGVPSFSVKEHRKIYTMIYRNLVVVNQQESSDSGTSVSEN

Substance | Kd [1] | p53 activity EC50 (µM) (0% FBS, 4 h) [2] | p53 activity EC50 (µM) (10% FBS, 16 h) [2]
Acetyl-^DPMI-δ-(6-10 olefin staple) (D-K9D-Q, D-R12D-S)-NH2 (peptide) | 258 nM | – | –
^DPMI-δ-(5-12 olefin staple)-NH2 (peptide) | 33.9 nM | 13.6 µM | 30.8 µM
^DPMI-δ-(6-10 olefin staple)-NH2 (peptide) | 118 nM | – | –

The next substances have a lower Kd [1] than those just listed; values first:

Kd [1] | p53 activity EC50 (µM) (0% FBS, 4 h) [2] | p53 activity EC50 (µM) (10% FBS, 16 h) [2] | Substance
30 nM | – | – | Acetyl-^DPMI-δ-(6-10 olefin staple) (D-K9D-Q, D-R12D-S) (D-A)-(D-F)-(D-A)-(D-Ala)-(D-A)-(D-A) polypeptide tail)-NH2
3.1 nM | – | – | Acetyl-^DPMI-δ-(6-10 olefin staple) (D-K9D-Q, D-R12D-S, 3x(D-A) polypeptide tail)-NH2
0.43 nM | – | – | Acetyl-^DPMI-δ-(6-10 olefin staple) (D-K9D-Q, D-R12D-S, 3x(D-Ala)-(D-Glu)-2x(D-Ala) polypeptide tail)-NH2

From patent US20250042961A1, “P53 PEPTIDOMIMETIC MACROCYCLES” (MERCK SHARP & DOHME LLC, priority 2021, published 2025)
